Laboratory results from patent US20210214413A1.

Molecular target: rhinovirus C15 virus (recombinant RV-C isolate C15, sucrose purified) (rhinovirus C15)
Experiment: HeLa-expressed protein recovered by α-His IP, denatured and refolded, reacted with C15 virus, α-His IP, Western blot

B1: pHL-FLAG-CDHR3-His EC1-3 (1-345), HeLa-expressed (receptor)
chain: DYKDDDDKLHLILLPATGNVAENSPPGTSVHKFSVKLSASLSPVIPGFPQIVNSNPLTEAFRVNWLSGTYFEVVTTGMEQLDFETGPNIFDLQIYVKDEVGVTDLQVLTVQVTDVNEPPQFQGNLAEGLHLYIVERANPGFIYQVEAFDPEDTSRNIPLSYFLISPPKSFRMSANGTLFSTTELDFEAGHRSFHLIVEVRDSGGLKASTELQVNIVNLNDEVPRFTSPTRVYTVLEELSPGTIVANITAEDPDDEGFPSHLLYSITTVSKYFMINQLTGTIQVAQRIDRDAGELRQNPTISLEVLVKDRPYGGQENRIQITFIVEDVNDNPATCHHHHHH
B1 showed a Binding % after refolding, relative to the same protein not refolded of 213%.
